Where “and” joins values, the source holds several entries; their conditions need not be identical. Identical values can stand only once.
Experiments:
[1] = biological target: T1, histidine-tagged soluble extracellular domain of human transferrin receptor 1 (sTfR1) from BHK cells (human, UniProt P02786); experiment: ELISA; details: both partners purified
T1 construct: also called hTfR1; sTfR1-His

[2] = biological target: T1, histidine-tagged soluble extracellular …; experiment: BLI; details: both partners purified

T1 sequence (P02786 89-760): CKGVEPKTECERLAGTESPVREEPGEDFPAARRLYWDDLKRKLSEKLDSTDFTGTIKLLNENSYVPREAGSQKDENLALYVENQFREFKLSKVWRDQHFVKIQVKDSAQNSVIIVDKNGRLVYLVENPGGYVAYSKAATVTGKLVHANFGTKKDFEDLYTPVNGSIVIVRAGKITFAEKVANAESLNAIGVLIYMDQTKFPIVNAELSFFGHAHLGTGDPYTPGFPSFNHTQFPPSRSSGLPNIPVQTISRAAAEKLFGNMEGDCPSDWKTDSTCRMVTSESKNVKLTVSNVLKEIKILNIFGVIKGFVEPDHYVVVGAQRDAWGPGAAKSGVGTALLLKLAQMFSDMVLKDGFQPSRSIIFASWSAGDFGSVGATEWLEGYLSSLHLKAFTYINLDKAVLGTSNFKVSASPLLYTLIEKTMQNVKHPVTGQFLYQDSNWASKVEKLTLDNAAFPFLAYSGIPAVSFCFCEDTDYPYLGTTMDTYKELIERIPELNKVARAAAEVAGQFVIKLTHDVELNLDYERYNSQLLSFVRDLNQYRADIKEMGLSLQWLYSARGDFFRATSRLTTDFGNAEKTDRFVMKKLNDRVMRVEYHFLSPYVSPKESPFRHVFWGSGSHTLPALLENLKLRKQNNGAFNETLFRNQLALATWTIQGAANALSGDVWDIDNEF

B1: OKT9 antigen binding fragment (OKT9-Fab) (Fab, V domains shown)
VH: QIQLQQSGPELVKPGTSMNISCKASGYTFTNYYMHWVRQRPGQGLEWIGWIYPGDGNTHYNEKFKGKTTLTADTSSITAYMLLSSLTSEDSAVYFCARDNSGYVGFPYWGQGTLVTVSA
VL: DIVMTQSPSSLTVTAGERVTMSCKSSQSLFNSANQENYLTWYQQRPGQPPKLLIYWASTRDSGVPDRFTGSGSGTDFTLTISSVQAEDLAVYYCQNDYSYPLTFGAGTKLELK
notes: also called Fab OKT9; OKT9 variable region
Which results are given for B1?
EC50 [1]: 3.69 nM and ~3.66 nM; Kd [2]: 4.9 nM and 4.78 nM and 4.76 nM and 4.82 nM; koff [2]: 0.0012 s⁻¹ and 0.00125 s⁻¹ and 0.00114 s⁻¹

B2: murine monoclonal antibody OKT9 (full-length IgG1) (antibody, V domains shown)
VH: B1 VH
VL: B1 VL
notes: also called full-length OKT9
For B2, which EC50 [1] is on record?
Its EC50 is 0.411 nM.

Reference: article PMC8354235 (Journal of Virology, 2021)
